# Experimental data as given in patent publication US20160333082A1 (US Dept. of Health and Human Services, published 2016).
# B1: anti-C3d mouse/human chimeric antibody C8D3 (antibody, V domains shown)
# VH: QAYLQQSGAELVRPGASVKMSCKASGYTFTSYYMHWVKQTPRQGLEWIGAIYPGNGDTSYNQKFKGKATLTVDKSSSTAYMQLSSLTSEDSAVYFCAKGFDYWGQGTTVTVSS
# VL: DVVMTQTPLSLPVSLGDQASISCRSSQSLVYSNGNTYLHWYLQKPGQSPKLLIYKVSNRFSGVPDRFSGSGSGTDFTLKISRVEAEDLGVYFCSQSTHVPYTFGGGTKLEIKR
# notes: also called chimeric C8D3; chimeric C8D3 mAb
# What was measured:
# [1] = molecular target: T1, human complement protein C3d (human, UniProt P01024 1002-1303); assay: flow cytometry (MFI) on CLL cells taken 24 h after ofatumumab infusion (C3d-opsonised)
# T1 construct: domain: C3d; The assay field of each row says which; also called C3d antigen; C3d protein
# [2] = molecular target: T1, human complement protein C3d; assay: avidity; antibody titration on C3d-opsonised CLL patient cells, 'OFA 24 h' sample (FIG. 9); apparent KD (avidity) on C3d-opsonized CLL cells, OFA 24 h sample
# [3] = molecular target: B1; assay: competition: C8D3 binding to C3d antigen (MFI) with increasing amounts of peptide
# [4] = molecular target: T1, human complement protein C3d; assay: surface plasmon resonance (Biacore 3000), C3d immobilised, Fab at 0.5, 2.5, 5, 25 and 50 nM
# [5] = molecular target: T1, human complement protein C3d; assay: PEPperCHIP microarray of 15-aa C3d peptides
# Text: The epitopes on C3d were mapped using PEPperCHIP technology (PEPperPRINT GmbH, Heidelberg, Germany). In brief, 15 amino acid (aa) long peptides with 14 aa overlaps were synthesized based on the C3d aa sequence and immobilized in duplicate on microarray chips. […] The microarrays were read using the LI-COR Odyssey Imaging System and then analyzed using PepSlide® Analyzer software.
binder,measurement,setting,value
B1,EC50 (read off the curve),[1],~40 nM
same,Kd,[2],6.7 nM
QYQKDAPDHQELNLDVSLQLPSR [epitope 3 derived peptide],binding result,[3],binds
"anti-C3d Fab of chimeric antibody C8D3 (Fab, V domains shown) VH: QAYLQQSGAELVRPGASVKMSCKASGYTFTSYYMHWVKQTPRQGLEWIGAIYPGNGDTSYNQKFKGKATLTVDKSSSTAYMQLSSLTSEDSAVYFCAKGFDYWGQGTTVTVSS VL: DVVMTQTPLSLPVSLGDQASISCRSSQSLVYSNGNTYLHWYLQKPGQSPKLLIYKVSNRFSGVPDRFSGSGSGTDFTLKISRVEAEDLGVYFCSQSTHVPYTFGGGTKLEIKR",Kd,[4],17 nM
"murine anti-C3d hybridoma clone C6 (antibody, V domains shown, Murine IgG1, kappa) VH: QAYLQQSGAELVRPGASVKMSCKASGYTFTSYYMHWVKQTPRQGLEWIGAIYPGNGDTSYNQKFKGKATLTVDKSSSTAYMQLSSLTSEDSAVYFCAKYGSGYWGQGTTVTVSS VL: DVVMTQTPLSLPVSLGDQASISCRSSQSLVYSNGNTYLHWYLQKPGQSPKLLIYKVSNRFSGVPDRFSGSGSGTDFTLKISRVEAEDLGVYFCSQSTHVPYTFGGGTKLEIKR",binding result,[5],binds
